Reference: the RNAGym collection of RNA variant scans (doi:10.1073/pnas.2313332121)
Fewer inactive variants are shown than the library holds.

B1: TPR 5TU (parent)
chain: GGAUCUUCUCGAUCUAACAAAAAAGACAAAUCUGCCACAAAGCUUGAGAGCAUCUUCGGAUGCAGAGGCGGCAGCCUUCGGUGGCGCGAUAGCGCCAACGUUCUCAACUAUGACACGCAAAACGCGUGCUCCGUUGAAUGGAGUUUAUCAUG

Variants of: B1
Test: polymerase ribozyme fitness, log enrichment relative to wild type (log ratio); higher = more active; in vitro selection for triplet polymerase activity
Method in brief: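 Each subunit of a heterodimeric triplet polymerase ribozyme was represented by a PCR-built, transcribed mutant library that underwent triplicate single-round in vitro selection with frozen incubation at −7 °C. Extended constructs were recovered by gel excision, streptavidin-bead capture and RT-PCR, and Illumina sequencing of input and output libraries kept genotypes with ≥10 input reads and ≥1 read per output. Fitness is the logarithm of genotype enrichment relative to wild-type enrichment, from inverse-variance-weighted replicate averages, with a logarithm base of 2.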

| Variant | polymerase ribozyme fitness (log ratio) |
| --- | --- |
| GGAUCUUCUCGAUCUAACAAAAAAGACAAAUCUGCCACAAAGCUUGAGAGCAUCUUCGGAUGCAGAGGCGGCAGCCUUCGGUUGCGCGAUAGUGCGAACGUUCUCAACUAUGACACGCAAAACGCGUGCUCCGUAGAAUGGAGUUUAUCAUG | -2.89 |
| GGAUCUUCUCGAUCUAACAAAAAAGACAAAUCUGCCACAAAGCUUGAGAGCAUCUUCGGAUGCAGAGGCGGCAGCCUUCGGUCGCGCGAUAGCGCCAACGUUCUCAACAAUGACCCGCAAAACGCGUGCUCCGUUGAAUCGAGUUUAUCAUG | ≤ -4.2 |
| GGAUCUUCUCGAUCUAACAAAAAAGACAAAUCUGCCACAAAGCUUGAGAGCAUCUUCGGAUGCAGAGGCGGCAGCCUUCGGUUGCGCGAUAGCGCCAACGUUUUCAACUAUGACACGCAAAACGCGUGCUCCGUUGAAUGGAGUUUAUCAUG | 0.2 |
| GGAUCUUCUCGAUCUAACAAAAAAGACAAAUCUGCCACAAAGCUUGAGAGCAUCUUCGGAUGCAGAGGCGGCAGCCUUCGGUUGCGCGAUAGCGUCAACGUUCUCAACUAUGACACGCAAAAUGCGUGCUCCGUUGAAUGGAUUUUAUCAUG | -3.65 |
| GGAUCUUCUCGAUCUAACAAAAAAGACAAAUCUGCCACAAAGCUUGAGAGCAUCUUCGGAUGCAGAGGCGGCAGCCUUCGGUUGCGCGAUAGCGCCAACGUUCUCAACUAUGACACGCAACACGCGUGCUCCGUUGAAUGGUGUUUAUCAUG | -1.46 |
| GGAUCUUCUCGAUCUAACAAAAAAGACAAAUCUGCCACAAAGCUUGAGAGCAUCUUCGGAUGCAGAGGCGGCAGCCUUCGGUUGCGCGAUAGCGCCACCGUUCUCAACUAUGACGCGCAAAACGCGUGCUCCGUUGAAUGGAGUUUAUCAUG | -1.62 |
| GGAUCUUCUCGAUCUAACAAAAAAGACAAAUCUGCCACAAAGCUUGAGAGCAUCUUCGGAUGCAGAGGCGGCAGCCUUCGGUUGCGCGAUAGCGCCGACGUUCUCAACUAUGACACGCAAAACGCGUGCUCCGUUGAAUGGUGUUUAUCAUG | -3.29 |
| GGAUCUUCUCGAUCUAACAAAAAAGACAAAUCUGCCACAAAGCUUGAGAGCAUCUUCGGAUGCAGAGGCGGCAGCCUUCGGUUGCGCGAUAGCACCAACGUUCUCAACUAUGACACGCAAAACGCGUGCUCCGUUGAAUGGAGUUUAUCAUG | -0.328 |
| GGAUCUUCUCGAUCUAACAAAAAAGACAAAUCUGCCACAAAGCUUGAGAGCAUCUUCGGAUGCAGAGGCGGCAGCCUUCGGUUGCGCGAUAGCGGCAACGUUCUCAACUAUGACACGCAAAACGCUUGCUCCGUUGAAUGGAGUUUAUCAUG | -1.85 |
| GGAUCUUCUCGAUCUAACAAAAAAGACAAAUCUGCCACAAAGCUUGAGAGCAUCUUCGGAUGCAGAGGCGGCAGCCUUCGGUUGCGCGAUAACGCCAACGUUCUCAACUAUGACACGCAAAACGGGUGCUCCGUUGAGUGGAGUUUAUCAAG | ≤ -4.2 |
| GGAUCUUCUCGAUCUAACAAAAAAGACAAAUCUGCCACAAAGCUUGAGAGCAUCUUCGGAUGCAGAGGCGGCAGCCUUCGGUCGCGCGAUAGCGCCAACGUUCUCAACUAUGACACGCAAAACGCGUGCUCCGUUGAAUGGAGUGUAUCAUG | -0.686 |
| GGAUCUUCUCGAUCUAACAAAAAAGACAAAUCUGCCACAAAGCUUGAGAGCAUCUUCGGAUGCAGAGGCGGCAGCCUUCGGUCGCGCGAUAGCGCCAACGUUCUCAACUAUGACACGCAAAACGCGUGCUCCGUUGAAUGGAGUCUAUCAUG | -2.18 |
| GGAUCUUCUCGAUCUAACAAAAAAGACAAAUCUGCCACAAAGCUUGAGAGCAUCUUCGGAUGCAGAGGCGGCAGCCUUCGGUUGCGCGAUACCGCCAACGUUCUCAACUAAGACACGCAAAACGCGUGCUCCGUUGAAUGGAGUUUAUCAUG | ≤ -4.2 |
| GGAUCUUCUCGAUCUAACAAAAAAGACAAAUCUGCCACAAAGCUUGAGAGCAUCUUCGGAUGCAGAGGCGGCAGCCUUCGGUUGCGCGAUAGCGCCACCGUUCUCAACUAUGACACGCAAAAUGUGUGAUCCGUUGAAUGGAGUUUAUCAUG | -3.47 |
| GGAUCUUCUCGAUCUAACAAAAAAGACAAAUCUGCCACAAAGCUUGAGAGCAUCUUCGGAUGCAGAGGCGGCAGCCUUCGGUCGCGCGAUAGCGCCAACGUUCUCAACUAUGACACGCAAAACGCGUGCUCCGUUGAAUGGAGCUUAUCAUG | -1.58 |
| GGAUCUUCUCGAUCUAACAAAAAAGACAAAUCUGCCACAAAGCUUGAGAGCAUCUUCGGAUGCAGAGGCGGCAGCCUUCGGUUGCGCGAUAGCGCCAACGUUCUCAUCUAUGACACGCAAAACGCGUGCUCCGUUGAAUGUAGUUUAUCAUG | ≤ -4.2 |
| GGAUCUUCUCGAUCUAACAAAAAAGACAAAUCUGCCACAAAGCUUGAGAGCAUCUUCGGAUGCAGAGGCGGCAGCCUUCGGUCGCGCGAUAGCGCCAACGUUCUCAACUAUGACACGCAAAACGCGUGCUCCGUUCAAUGGAGUUGAUCAUG | -3.41 |
| GGAUCUUCUCGAUCUAACAAAAAAGACAAAUCUGCCACAAAGCUUGAGAGCAUCUUCGGAUGCAGAGGCGGCAGCCUUCGGUUGCGUGCUAGCGCCAACGUUCUCAACUAUGACACGCAAAAAGUGUGCUCCGUUGAAUGGAGUUUAUCAUG | -1.33 |
| GGAUCUUCUCGAUCUAACAAAAAAGACAAAUCUGCCACAAAGCUUGAGAGCAUCUUCGGAUGCAGAGGCGGCAGCCUUCGGUUGCGUGAUAGCGCCAACGUUCUCAACUAUGACACGCAAAACGCGUGCUCCGUUGAAUGGAGUUUAUCAUG | -1.25 |

| Variant | polymerase ribozyme fitness (log ratio) |
| --- | --- |
| GGAUCUUCUCGAUCUAACAAAAAAGACAAAUCUGCCACAAAGCUUGAGAGCAUCUUCGGAUGCAGAGGCGGCAGCCUUCGGUUGCGCGAUAGCGCCAACGUUGUCAUCUAUGACACGCAAAACGCGUGCUCCGUUGAAUGGAGUUUAUCAUG | ≤ -4.2 |
| GGAUCUUCUCGAUCUAACAAAAAAGACAAAUCUGCCACAAAGCUUGAGAGCAUCUUCGGAUGCAGAGGCGGCAGCCUUCGGUUGCGGGAUAGCGCCAAUGUUCUCAACUAUGACACGCAAAACGCGUGCUCCGUUGAAUGGAGUUUAUCAUG | ≤ -4.2 |
| GGAUCUUCUCGAUCUAACAAAAAAGACAAAUCUGCCACAAAGCUUGAGAGCAUCUUCGGAUGCAGAGGCGGCAGCCUUCGGUUGCGCGAUAGCGCCAACGUUCUCAACUAUGACACGCAAAACGCGUGCUCCGUUGAAUGGCGUCUAUCAUG | -3.76 |
| GGAUCUUCUCGAUCUAACAAAAAAGACAAAUCUGCCACAAAGCUUGAGAGCAUCUUCGGAUGCAGAGGCGGCAGCCUUCGGUUGCGCGAUAGCGCCAACGUUCUCAACUAUGACACGCAAAACGCGUGCUCCGUUGAAUGGAGUUUAUUAUG | -1.76 |
| GGAUCUUCUCGAUCUAACAAAAAAGACAAAUCUGCCACAAAGCUUGAGAGCAUCUUCGGAUGCAGAGGCGGCAGCCUUCGGUCGCGCGACAGCGCCAACGUUCUCACCUAUGACAAGCAAAACGCGCGCUCCGUUGAAUGGAGUUUAUCCUG | ≤ -4.2 |
| GGAUCUUCUCGAUCUAACAAAAAAGACAAAUCUGCCACAAAGCUUGAGAGCAUCUUCGGAUGCAGAGGCGGCAGCCUUCGGUUGCGCGAUAGCGCCAACGUUCUCAACUAUGACACGCAAAACGCGUGCUCUGUUGAAUGGAGUUUAUCAUG | -1.33 |
| GGAUCUUCUCGAUCUAACAAAAAAGACAAAUCUGCCACAAAGCUUGAGAGCAUCUUCGGAUGCAGAGGCGGCAGCCUUCGGUCGCGCGAUAGCGCCAACGUUCUCAACUAUGACACGCAAAACGCGUGCUCCGUUGAAUGGAGUUAAUCAUG | -0.565 |
| GGAUCUUCUCGAUCUAACAAAAAAGACAAAUCUGCCACAAAGCUUGAGAGCAUCUUCGGAUGCAGAGGCGGCAGCCUUCGGUUGCGCUAUAGCGCCAACGUUCUCAACUAUGACACGCAAAACGCGUGCUCCGUUGAAUGGAGUUUAUCUUG | -3.49 |
| GGAUCUUCUCGAUCUAACAAAAAAGACAAAUCUGCCACAAAGCUUGAGAGCAUCUUCGGAUGCAGAGGCGGCAGCCUUCGGUUGCGCGAUAGCGCAAACGUUCUCAACUAUGACACGCAAAACGCGUGCUCCGUUGAAUGGAGUUUAUCAUG | -0.528 |
| GGAUCUUCUCGAUCUAACAAAAAAGACAAAUCUGCCACAAAGCUUGAGAGCAUCUUCGGAUGCAGAGGCGGCAGCCUUCGGUUGCGCGAUAGCGCCAACGUUCUCAACUAUGUCACGCAAAACGCGUGCUCCGUUGAAUGGAGUUUAUCAUG | -2.14 |
| GGAUCUUCUCGAUCUAACAAAAAAGACAAAUCUGCCACAAAGCUUGAGAGCAUCUUCGGAUGCAGAGGCGGCAGCCUUCGGUCGCGCGAUAGCGCCAACGGUCUCUACUAUGACACGCAAAACGCGUGCUCCGUUGAAUGGAGUUUAUCAUG | -3.95 |
| GGAUCUUCUCGAUCUAACAAAAAAGACAAAUCUGCCACAAAGCUUGAGAGCAUCUUCGGAUGCAGAGGCGGCAGCCUUCGGUUGCGCGAUAGCGCCAAGGUUCUCAACUAUGACACGCAAAACGCGUGCUCCGUUGAAUGGAGUGUAUCAUG | ≤ -4.2 |
| GGAUCUUCUCGAUCUAACAAAAAAGACAAAUCUGCCACAAAGCUUGAGAGCAUCUUCGGAUGCAGAGGCGGCAGCCUUCGGUCGCGCGAUAGCGCCAACGUUCUCAACUAUGACACGCAAAACGCGUGCUCCGUUGAAUGGAGUUUAUCAUC | -3.16 |
| GGAUCUUCUCGAUCUAACAAAAAAGACAAAUCUGCCACAAAGCUUGAGAGCAUCUUCGGAUGCAGAGGCGGCAGCCUUCGGUUGCGCGAUAGCGCCAACGUUCUCAACUAUGACCCGCAAAACGCGUGCUCCGUUGAAUGGAGUUUAUCAUG | -0.337 |
| GGAUCUUCUCGAUCUAACAAAAAAGACAAAUCUGCCACAAAGCUUGAGAGCAUCUUCGGAUGCAGAGGCGGCAGCCUUCGGUUGCGCGAUAGUGCCAACGUUCUCAACUAUGACACGCAAAACGCGUGCUCCGUUGAAUGGAGUUUAUCAUG | -2.69 |
| GGAUCUUCUCGAUCUAACAAAAAAGACAAAUCUGCCACAAAGCUUGAGAGCAUCUUCGGAUGCAGAGGCGGCAGCCUUCGGUUGCGCGAUAGCGCCAACGUUCUCAACUAUGACACGCAAAACGCGUGCUCCGUUGAAUGGAGUUUAUCGUG | -3.14 |
| GGAUCUUCUCGAUCUAACAAAAAAGACAAAUCUGCCACAAAGCUUGAGAGCAUCUUCGGAUGCAGAGGCGGCAGCCUUCGGUUGCGCGAUAGCGCCAACGUUCUGAGCUAUGACACGCAAAACGCGUGCUCCGUGGAAUGGAGUUUAUCAUC | ≤ -4.2 |
| GGAUCUUCUCGAUCUAACAAAAAAGACAAAUCUGCCACAAAGCUUGAGAGCAUCUUCGGAUGCAGAGGCGGCAGCCUUCGGUUGCGCGAUAGCGCCAACGUUCUCAACUAUGACACGCAUAACGCGUGCUCCGUUGCAUGGAGUUUAUCAUG | -3.31 |
| GGAUCUUCUCGAUCUAACAAAAAAGACAAAUCUGCCACAAAGCUUGAGAGCAUCUUCGGAUGCAGAGGCGGCAGCCUUCGGUCGCGCGAUAGCGCCAACGUUCUCAACUAUGACACGCAAAACGCGUGCUCCGUUGAAUGGAGUUUAGCAUA | -3.67 |
